Legend:
Test in all cases: cell-based or functional assay
hCXCR3 (human) = hCXCR3 (human) (UniProt P49682)
hCCR2b (human) = hCCR2b (human) (UniProt P41597)
[1] = molecular target: chemokine receptor CCR7 (human) (UniProt P32248)
CCR6 (human) = CCR6 (human) (UniProt P51684)
hCCR10 (human) = hCCR10 (human) (UniProt P46092)
hCCR9 (human) = hCCR9 (human) (UniProt P51686)
CCR4 (human) = CCR4 (human) (UniProt P51679)
hCXCR4 (human) = hCXCR4 (human) (UniProt P61073)
Chain of hCXCR4 (human) (P61073 whole entry): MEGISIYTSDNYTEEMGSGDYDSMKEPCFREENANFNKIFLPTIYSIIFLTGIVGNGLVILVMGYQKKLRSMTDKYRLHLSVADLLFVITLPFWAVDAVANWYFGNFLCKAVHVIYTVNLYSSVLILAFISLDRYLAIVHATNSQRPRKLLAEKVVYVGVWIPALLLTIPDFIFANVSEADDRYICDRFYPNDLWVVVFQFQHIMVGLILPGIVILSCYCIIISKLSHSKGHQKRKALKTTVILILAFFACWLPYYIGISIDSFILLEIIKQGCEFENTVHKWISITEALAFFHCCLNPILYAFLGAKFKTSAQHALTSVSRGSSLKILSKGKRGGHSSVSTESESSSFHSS

Chain of hCCR9 (human) (P51686 whole entry): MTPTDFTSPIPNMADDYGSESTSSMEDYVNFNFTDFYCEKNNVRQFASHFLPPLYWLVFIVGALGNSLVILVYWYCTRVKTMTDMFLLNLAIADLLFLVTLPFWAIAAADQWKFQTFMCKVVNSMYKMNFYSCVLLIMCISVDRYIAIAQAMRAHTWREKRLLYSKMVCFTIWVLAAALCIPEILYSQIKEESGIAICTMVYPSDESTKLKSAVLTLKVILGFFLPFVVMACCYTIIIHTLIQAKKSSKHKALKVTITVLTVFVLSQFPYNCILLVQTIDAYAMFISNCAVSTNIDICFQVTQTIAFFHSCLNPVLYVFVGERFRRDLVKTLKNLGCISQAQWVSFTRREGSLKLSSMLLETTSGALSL
Chain of CCR4 (human) (P51679 whole entry): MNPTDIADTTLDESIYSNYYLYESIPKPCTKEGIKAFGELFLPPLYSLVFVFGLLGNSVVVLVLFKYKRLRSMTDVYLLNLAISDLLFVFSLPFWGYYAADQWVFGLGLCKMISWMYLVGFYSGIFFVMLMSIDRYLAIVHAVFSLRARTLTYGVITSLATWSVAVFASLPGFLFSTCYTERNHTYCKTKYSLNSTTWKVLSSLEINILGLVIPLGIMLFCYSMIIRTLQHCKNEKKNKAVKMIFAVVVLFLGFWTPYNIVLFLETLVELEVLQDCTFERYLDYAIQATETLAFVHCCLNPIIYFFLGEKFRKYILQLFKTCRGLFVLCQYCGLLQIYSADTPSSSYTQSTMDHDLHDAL
Chain of hCXCR3 (human) (P49682 whole entry): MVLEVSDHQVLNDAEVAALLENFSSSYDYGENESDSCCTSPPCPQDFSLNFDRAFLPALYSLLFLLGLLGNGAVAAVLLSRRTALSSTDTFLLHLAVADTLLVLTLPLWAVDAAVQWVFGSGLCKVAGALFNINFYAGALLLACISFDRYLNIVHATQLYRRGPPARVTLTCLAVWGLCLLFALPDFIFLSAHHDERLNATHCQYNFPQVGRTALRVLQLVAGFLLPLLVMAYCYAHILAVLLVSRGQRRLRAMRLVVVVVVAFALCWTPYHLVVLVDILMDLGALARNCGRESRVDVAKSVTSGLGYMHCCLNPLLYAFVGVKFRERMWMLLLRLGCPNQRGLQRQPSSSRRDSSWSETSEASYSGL
Chain of CCR6 (human) (P51684 whole entry): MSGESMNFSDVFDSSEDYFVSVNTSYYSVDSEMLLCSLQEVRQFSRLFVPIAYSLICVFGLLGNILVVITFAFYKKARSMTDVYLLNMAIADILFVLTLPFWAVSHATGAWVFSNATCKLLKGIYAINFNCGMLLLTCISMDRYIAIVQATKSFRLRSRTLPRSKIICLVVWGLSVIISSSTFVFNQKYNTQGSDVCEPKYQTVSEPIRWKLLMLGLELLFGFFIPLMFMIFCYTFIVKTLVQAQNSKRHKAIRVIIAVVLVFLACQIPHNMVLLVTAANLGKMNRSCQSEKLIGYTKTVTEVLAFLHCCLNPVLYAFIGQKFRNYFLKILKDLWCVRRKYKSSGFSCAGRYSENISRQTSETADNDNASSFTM
Chain of hCCR10 (human) (P46092 whole entry): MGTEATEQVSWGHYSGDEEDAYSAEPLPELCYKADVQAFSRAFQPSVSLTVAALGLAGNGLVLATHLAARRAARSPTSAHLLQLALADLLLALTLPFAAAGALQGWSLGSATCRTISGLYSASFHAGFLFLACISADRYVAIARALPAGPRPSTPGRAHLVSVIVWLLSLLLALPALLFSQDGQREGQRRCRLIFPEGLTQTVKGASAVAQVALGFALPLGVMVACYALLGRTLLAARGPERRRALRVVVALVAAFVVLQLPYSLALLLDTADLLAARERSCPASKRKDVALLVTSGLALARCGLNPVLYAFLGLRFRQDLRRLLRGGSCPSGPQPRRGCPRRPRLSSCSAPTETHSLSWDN
Chain of chemokine receptor CCR7 (human) (P32248 25-378): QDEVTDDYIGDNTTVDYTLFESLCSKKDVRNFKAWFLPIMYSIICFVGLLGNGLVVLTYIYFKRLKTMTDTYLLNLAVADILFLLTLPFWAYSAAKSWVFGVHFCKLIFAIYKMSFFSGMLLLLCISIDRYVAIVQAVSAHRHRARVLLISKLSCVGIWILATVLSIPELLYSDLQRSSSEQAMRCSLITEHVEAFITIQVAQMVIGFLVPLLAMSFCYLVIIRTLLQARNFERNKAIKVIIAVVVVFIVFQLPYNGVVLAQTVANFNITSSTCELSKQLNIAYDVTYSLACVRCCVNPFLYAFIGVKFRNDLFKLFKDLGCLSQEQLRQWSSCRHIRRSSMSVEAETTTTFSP
Chain of hCCR2b (human) (P41597 other isoform, or with tags, fused parts or gaps limits assumed): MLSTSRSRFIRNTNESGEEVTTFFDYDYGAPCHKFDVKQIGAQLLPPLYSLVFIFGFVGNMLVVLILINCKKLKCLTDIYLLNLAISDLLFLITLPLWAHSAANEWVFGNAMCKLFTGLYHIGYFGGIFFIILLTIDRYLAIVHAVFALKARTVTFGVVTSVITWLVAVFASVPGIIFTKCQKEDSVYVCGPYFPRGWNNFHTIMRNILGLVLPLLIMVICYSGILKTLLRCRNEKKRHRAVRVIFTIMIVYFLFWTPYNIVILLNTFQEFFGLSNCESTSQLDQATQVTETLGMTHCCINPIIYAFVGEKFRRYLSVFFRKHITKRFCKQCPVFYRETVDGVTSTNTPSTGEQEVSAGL

“recombinant native IP-10 (from UniProt P02778 22-98) (ligand)” was tested, and the EC50, agonist activity, Aequorin assay (hCXCR3 (human)) was 4.4 nM.

With “recombinant native MCP-2 (from UniProt P80075 24-99) (ligand)” the EC50, Aequorin assay (partial agonist) (hCCR2b (human)) was 23.5 nM.

Work on “recombinant native ITAC (from UniProt O14625 22-94) (ligand)” yielded an EC50, agonist activity, Aequorin assay (hCXCR3 (human)) of 0.7 nM.

Substance “recombinant native MIP-3β (from UniProt Q99731 22-98) (ligand)” has an EC50, agonist activity, Aequorin assay [1] of 1.6 nM.

Work on “recombinant native MIP-3α (from UniProt P78556 27-96) (ligand)” yielded an EC50, agonist activity, Aequorin assay (CCR6 (human)) of 1 nM.

“recombinant native CTAC (from UniProt Q9Y4X3 25-112) (ligand)” gave an EC50, agonist activity, Aequorin assay (hCCR10 (human)) of 33.5 nM.

“recombinant native TECK (from UniProt O15444 24-150) (ligand)” was tested, and the EC50, agonist activity, Aequorin assay (hCCR9 (human)) was 67.9 nM.

“biotinylated MIP-3alpha (from UniProt P78556 27-96) (ligand)” gave a reduction of CCR6-expressing cells by the column (flow cytometry before and after passage) (CCR6 (human)) of less than 15%.

“recombinant native TARC (from UniProt Q92583 24-94) (ligand)” was tested, and the EC50, agonist activity, Aequorin assay (CCR4 (human)) was 2.6 nM.

For “biotinSDF-1α (CXCL12), SDF-1α derivatised at the ε-amino side chain functionality of Lys(64) with Biotin (from UniProt P48061 22-67) (ligand)”, the EC50, agonist activity, Aequorin assay (hCXCR4 (human)) was 17.3 nM.

“recombinant native MDC (from UniProt O00626 25-93) (ligand)” showed an EC50, agonist activity, Aequorin assay (CCR4 (human)) of 3.6 nM.

“biotinTECK(Met to Nleu substitution) (CCL25), derivatised at the ε-amino side chain functionality of Lys72 with PEG-Biotin (from UniProt O15444 25-97) (ligand)” showed an EC50, agonist activity, Aequorin assay (hCCR9 (human)) of 63.6 nM.
